Source: patent US20240010735A1 (EISAI R AND D MANAGEMENT, published 2024)

B1: mouse anti-EphA4 monoclonal antibody (antibody A) (antibody, mouse IgG1, kappa, V domains shown)
VH: QVQLKQSGPSLVQPSQSLSITCTVSGFSLTRYGVHWVRQSPGKGLEWLGVIWRGGSTDYNAAFMSRLSITKDNSKSQVFFKMNSLQADDTAIYYCAKESLFGVYYDYGYYSMDYWGQGTSVTVSS
VL: DIQMTQSPSSLSASLGERVSLTCRASQEISGYLSWLQQKPDGTIKRLIYAASTLDSGVPKRFSGSRSGSDYSLTISSLESEDFADYYCLQYASYPLTFGAGTKLELKR
notes: purified from hybridoma supernatant
B2: humanized anti-EphA4 monoclonal antibody (antibody B) (antibody, human IgG2, V domains shown)
VH: QVQLVESGGGVVQPGRSLRLSCAVSGFSLTRFGVHWVRQAPGKGLEWVAVIWRGGSTDYNAAFMSRLTISKDNSKNTVYLQMNSLRAEDTAVYYCAKESLFGVYYDYGYYSMDYWGQGTTVTVSS
VL: DIQMTQSPSSLSASVGDRVTITCRASQEISGYLSWLQQKPGKAPKRLIYAASTLDSGVPSRFSGSRSGTEYTLTISSLQPEDFATYYCLQYASYPLTFGGGTKVEIKR
notes: expressed in Expi293F cells; also called humanized antibody of antibody A; HK2-42 / L1-8

Experiments:
[1] = target: T1, mouse EphA4 extracellular region-SEAP-His protein (mouse); experiment: competition ELISA; captured mouse EphA4 extracellular region-SEAP-His, competitor biotinylated mouse EphrinB2-Fc chimera (2.5 nM)
T1 construct: also called mouse EphA4 extracellular region-SEAP-His 10
T1 sequence (chain, as listed by the source limits assumed): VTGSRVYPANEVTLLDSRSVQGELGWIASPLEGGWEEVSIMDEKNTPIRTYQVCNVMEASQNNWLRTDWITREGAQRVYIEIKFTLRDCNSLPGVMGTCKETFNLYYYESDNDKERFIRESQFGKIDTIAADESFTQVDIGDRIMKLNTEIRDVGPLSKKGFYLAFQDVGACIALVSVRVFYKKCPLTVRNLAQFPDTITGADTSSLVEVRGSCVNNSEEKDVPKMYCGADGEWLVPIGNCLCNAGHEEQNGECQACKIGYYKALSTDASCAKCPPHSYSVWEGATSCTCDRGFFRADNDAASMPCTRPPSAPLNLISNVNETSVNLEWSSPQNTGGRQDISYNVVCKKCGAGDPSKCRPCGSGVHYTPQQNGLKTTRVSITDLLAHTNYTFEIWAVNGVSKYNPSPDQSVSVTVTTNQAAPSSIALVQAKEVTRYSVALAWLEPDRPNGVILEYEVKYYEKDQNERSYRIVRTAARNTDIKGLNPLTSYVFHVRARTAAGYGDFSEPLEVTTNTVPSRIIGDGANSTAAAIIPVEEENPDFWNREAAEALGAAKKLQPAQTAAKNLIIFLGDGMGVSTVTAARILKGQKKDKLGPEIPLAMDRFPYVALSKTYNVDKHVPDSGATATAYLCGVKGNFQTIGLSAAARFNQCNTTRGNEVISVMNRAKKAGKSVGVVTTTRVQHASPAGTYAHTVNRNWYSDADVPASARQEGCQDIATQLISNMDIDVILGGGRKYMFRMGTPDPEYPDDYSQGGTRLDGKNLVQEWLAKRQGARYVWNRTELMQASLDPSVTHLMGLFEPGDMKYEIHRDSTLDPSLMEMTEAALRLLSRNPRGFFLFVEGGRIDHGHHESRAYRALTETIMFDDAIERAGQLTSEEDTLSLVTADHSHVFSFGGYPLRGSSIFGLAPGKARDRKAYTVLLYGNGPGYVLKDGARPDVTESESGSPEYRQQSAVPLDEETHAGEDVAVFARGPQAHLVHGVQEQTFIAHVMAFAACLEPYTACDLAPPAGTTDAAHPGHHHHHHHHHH
Experimental: Anti-alkaline phosphatase antibodies (Thermo […]) were coated onto the wells of a 96-well plate (Nunc). After incubating at 4° C. overnight, the wells were blocked at room temperature for 1 hour by 1% Block Ace (DS Pharma Biomedical). After washing 3 times with 0.02% Tween 20/PBS (Thermo […]), mouse EphA4 extracellular region-SEAP-His protein was added to the wells (final concentration 10 nM), and incubated at room temperature for 1 hour. After washing 3 times, the ligand and antibody A (0, 0.003, 0.01, 0.03, 0.1, 0.3, 1, 3, 10, 30, 100, 300, 1000, 3000 nM) were supplemented to the wells. Note that biotinylated mouse EphrinA1-Fc chimera (R&D Systems, final concentration 6 nM) and biotinylated mouse EphrinB2-Fc chimera (R&D Systems, final concentration 2.5 nM) were employed as ligands. After incubating at room temperature for 1 hour and washing 3 times, horseradish peroxidase-labeled streptavidin (GE Healthcare) was added, and incubated at room temperature for 1 hour. After washing 3 times, TMBZ (3,3′, 5,5′-tetramethylbenzidine, Sigma) solution was added to the wells, and incubated at room temperature for 2 minutes. An equal amount of quenching solution (1 N H₂SO₄, Wako Pure Chemicals) was added to the wells, and absorbance at 450 nm was read by a microplate reader (PerkinElmer). […]

[2] = target: T2, human EphA4 extracellular region-SEAP-His protein (human, UniProt P54764 20-547); experiment: competition ELISA; captured human EphA4 extracellular region-SEAP-His, competitor biotinylated human EphrinA5-Fc chimera (0.7 nM)
T2 construct: also called human EphA4 extracellular region-SEAP-His 10; not shown: secretory alkaline phosphatase (SEAP); histidine tag
T2 sequence (P54764 20-547): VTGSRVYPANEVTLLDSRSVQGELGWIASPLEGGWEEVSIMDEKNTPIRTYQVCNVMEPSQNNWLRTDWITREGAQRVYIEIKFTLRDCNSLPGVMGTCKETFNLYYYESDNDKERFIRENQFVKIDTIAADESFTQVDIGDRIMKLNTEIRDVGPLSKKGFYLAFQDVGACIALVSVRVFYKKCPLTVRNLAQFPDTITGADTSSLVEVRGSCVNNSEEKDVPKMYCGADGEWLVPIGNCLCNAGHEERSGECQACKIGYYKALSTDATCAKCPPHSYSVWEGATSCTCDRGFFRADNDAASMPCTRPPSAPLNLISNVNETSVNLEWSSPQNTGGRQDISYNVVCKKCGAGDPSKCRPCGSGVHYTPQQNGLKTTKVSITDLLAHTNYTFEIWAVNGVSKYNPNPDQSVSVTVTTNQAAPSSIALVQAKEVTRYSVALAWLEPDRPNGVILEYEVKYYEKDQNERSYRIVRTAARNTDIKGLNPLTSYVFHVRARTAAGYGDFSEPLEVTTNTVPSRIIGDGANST
Experimental: Anti-alkaline phosphatase antibodies (Thermo […]) were coated onto the wells of a 96-well plate (Nuns). After incubating at 4° C. overnight, the wells were blocked at room temperature for 1 hour by 1% Block Ace (DS Pharma Biomedical). After washing 3 times with 0.05% Tween 20/PBS (Thermo […]), human EphA4 extracellular region-SEAP-His protein was added to the wells (final concentration 10 nM), and incubated at room temperature for 1 hour. After washing 3 times, the ligand and serially diluted antibody A (0, 0.003, 0.01, 0.03, 0.1, 0.3, 1, 3, 10, 30, 100, 300, 1000, 3000 nM) were supplemented to the wells. Note that biotinylated human EphrinA5-Fc chimera (R&D Systems, final concentration 0.7 nM) and biotinylated human EphrinB3-Fc chimera (R&D Systems, final concentration 2.3 nM) were employed as ligands. After incubating at room temperature for 1 hour and washing 3 times, horseradish peroxidase-labeled streptavidin (GE Healthcare) was added, and incubated at room, temperature for 1 hour. After washing 3 times, TMBZ (3,3′,5,5 ′-tetramethylbenzidine, Sigma) solution was added to the wells, and incubated at room temperature for 2-5minutes. An equal amount of quenching solution (1 N H₂SO₄, Wako Pure Chemicals) was added to the wells, and absorbance at 450 nm was read by a microplate reader (Molecular Devices or PerkinElmer). […]

Binder	IC50 [1] [nM]	IC50 [2] [nM]
B1	~3.1	~2.8
B2	~4.2	~4.9
